Assay [1] addresses B7-H3-His recombinant protein (UniProt Q5ZPR3). The assay is described as follows: SPR; B7-H3-His on CM5 chip, antibody as mobile phase.
Assay [2] deals with T1, murine 2Ig-B7-H3 (m2IgB7H3) expressed on Raji cells (mouse, UniProt Q8VE98 29-316).
T1 construct: whole, on cells; also called m2IgB7H3-Raji; mB7-H3-Raji
T1 sequence (looked up): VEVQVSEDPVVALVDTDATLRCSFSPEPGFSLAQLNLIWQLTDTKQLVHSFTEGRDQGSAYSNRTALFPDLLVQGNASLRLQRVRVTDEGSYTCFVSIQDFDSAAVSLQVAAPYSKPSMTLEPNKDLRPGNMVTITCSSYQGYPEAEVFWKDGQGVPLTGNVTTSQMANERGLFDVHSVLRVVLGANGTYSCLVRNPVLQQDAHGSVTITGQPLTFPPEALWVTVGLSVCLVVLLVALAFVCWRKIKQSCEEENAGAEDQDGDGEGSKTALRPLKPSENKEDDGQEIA
The assay is described as follows: flow cytometry on m2IgB7H3-Raji cells. For orientation: Flow cytometry measures light scatter and fluorescence of single cells or particles in a stream.

In assay [3] the target is T2, human 4Ig-B7-H3 (h4IgB7H3) expressed on Raji cells (human, UniProt Q5ZPR3 29-534).
T2 construct: whole, on cells; also called h4IgB7H3-Raji
T2 sequence (looked up): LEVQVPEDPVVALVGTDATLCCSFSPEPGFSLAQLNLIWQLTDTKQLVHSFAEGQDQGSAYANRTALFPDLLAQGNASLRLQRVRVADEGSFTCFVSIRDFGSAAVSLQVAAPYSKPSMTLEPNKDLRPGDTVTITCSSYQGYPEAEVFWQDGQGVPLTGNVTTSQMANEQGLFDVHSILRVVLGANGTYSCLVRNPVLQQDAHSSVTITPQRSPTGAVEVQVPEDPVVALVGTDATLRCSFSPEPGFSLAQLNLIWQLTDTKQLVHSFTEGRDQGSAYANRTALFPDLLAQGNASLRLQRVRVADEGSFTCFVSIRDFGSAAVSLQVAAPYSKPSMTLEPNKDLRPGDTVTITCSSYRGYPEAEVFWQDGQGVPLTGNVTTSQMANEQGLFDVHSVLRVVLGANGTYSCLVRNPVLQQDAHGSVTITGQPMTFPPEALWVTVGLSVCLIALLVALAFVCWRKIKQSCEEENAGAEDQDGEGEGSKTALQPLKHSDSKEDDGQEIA
Description: flow cytometry on h4IgB7H3-Raji cells.

Positions count from the first letter of the chain named.

B1: mouse anti-human mB7-H3 antibody (antibody, V domains shown)
VH: EVTLVESGGGLVKPGGSLKLSCAASGFTFSTYVMSWVRQTPEKRLEWVASILSGGTSFYADNVKGRFTISRENARNILYLQMSSLKSEDTAMYYCVRRYGHDHYYAMDYWGQGTSVTVSS
VL: QIVLTQSPANMSASLGERVTMTCAASSSVSSSYLHWYQQKPGSSPKLWIYSTSNLASGVPGRFNGSGSGTSYSLTISSMEAEDAATYYCHQYHRSPWTFGGGTKLEIK
B1: in assay [1], the Kd was 70.8 nM, the koff amounted to 0.00258 s⁻¹ and the kon came out at 36400 M⁻¹ s⁻¹.

B2: humanized B7-H3 antibody T1H1-T1L1 (αhB7-H3 antibody) (antibody, V domains shown)
VH: EVQLVESGGGLIQPGGSLRLSCAASGFTFSTYVMSWVRQAPGKGLEWVSSILSGGTSFYADNVKGRFTISRDNSKNTLYLQMNSLRAEDTAVYYCARRYGHDHYYAMDYWGQGTLVTVSS
VL: EIVLTQSPATLSLSPGERATLSCAASSSVSSSYLHWYQQKPGLAPRLLIYSTSNLASGIPDRFSGSGSGTDFTLTISRLEPEDFAVYYCQQYHRSPWTFGGGTKVEIK
notes: They were subcloned into the pcDNA3.1-IgG1Fc (heavy) and pcDNA3.1-IgKc (light) expression vectors; The antibody was detected with anti-human IgG; also called αhB7-H3 Ab; B7-H3 T1H1-T1L1
Regarding B2, in assay [2], the binding result is reported as “binds”. Moreover, in assay [1], the equilibrium dissociation constant (Kd) is 114 nM, the koff was 0.00282 s⁻¹ and the association rate constant (kon) came to 24800 M⁻¹ s⁻¹. The binding result in assay [3] is “binds”.

B3: humanized B7-H3 antibody T2H1-T2L1 (βhB7-H3 antibody) (antibody, V domains shown)
VH: B2 VH with L11V, I12V, Q13R, S74A, T77S, V92L, Y94H, L115T
VL: DIQMTQSPSTLSASVGDRVTITCAASSSVSSSYLHWYQQKPGKAPKLLIYSTSNLASGVPSRFSGSGSGTEFTLTISSLQPDDFATYYCQQYHRSPWTFGQGTKLEIK
B3: in assay [1], the Kd came to 72.8 nM, the koff came to 0.00289 s⁻¹ and the kon came to 39700 M⁻¹ s⁻¹.

What is called Kd is the free concentration of one partner at which half of the binding sites on the other are occupied at equilibrium, for simple one-to-one binding. The koff is the rate constant with which the complex falls apart. As usually defined, the kon is a measure of how fast the partners come together.

Values taken from patent publication EP4279506A1 (Persongen Biotherapeutics (Suzhou) Co., Ltd., dated 2023).
